Patent US20250011430A1

T1: B7H3 on cells (B7H3 on HEK293 cells; B7H3 expressed from plasmid on HEK-293T and QT6 cells) (human) (UniProt Q5ZPR3)
T1 sequence (looked up): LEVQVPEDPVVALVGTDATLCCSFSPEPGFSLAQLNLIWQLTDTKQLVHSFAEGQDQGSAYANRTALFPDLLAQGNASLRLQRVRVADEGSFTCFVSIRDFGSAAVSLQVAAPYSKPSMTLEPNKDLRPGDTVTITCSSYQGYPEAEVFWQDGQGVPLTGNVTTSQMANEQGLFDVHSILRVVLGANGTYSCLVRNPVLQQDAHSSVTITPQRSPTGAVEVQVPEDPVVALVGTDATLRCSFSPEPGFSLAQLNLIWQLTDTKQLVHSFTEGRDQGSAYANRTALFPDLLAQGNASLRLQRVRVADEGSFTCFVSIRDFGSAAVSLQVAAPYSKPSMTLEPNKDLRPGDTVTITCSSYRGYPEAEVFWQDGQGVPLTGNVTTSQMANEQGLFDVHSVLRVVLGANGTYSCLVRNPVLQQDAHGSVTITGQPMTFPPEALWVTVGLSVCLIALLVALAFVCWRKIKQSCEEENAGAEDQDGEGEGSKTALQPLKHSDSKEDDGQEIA


What was measured:
[1] = target: human B7H3 ECD-His (human) (UniProt Q5ZPR3); assay: ForteBio BLI
[2] = target: human B7H3 ECD-His (human) (UniProt Q5ZPR3); assay: ForteBio BLI, antibody on AHQ sensor, 60 nM antigen, 1:1 model
[3] = target: T1, B7H3 on cells (B7H3 on HEK293 cells; B7H3 expressed from plasmid on HEK-293T and QT6 cells) (human); assay: flow cytometry on HEK293 cells

Kd [1] [nM]	Kd [2] [nM]	Binder	EC50 [3] [µg/mL]
37		humanized 6F7 with light chain variable region LV1 (antibody, V domains shown) VH: EVQLVESGGGLVQPGGSLRLSCAASGFTFTDYYMSWVRQAPGKGLEWVAFIRNKANGYTTEYSASVKGRFTISRDDSKNSLYLQMNSLRAEDTAVYYCARDSHYRPFAYWGQGTLVTVSS VL: DIVMTQSPLSLPVTPGEPASISCKSSQSLLNSGNQNNYLTWYLQKPGQSPQLLIYLASTRDSGVPDRFSGSGSGTDFTLKISRVEAEDVGVYYCQNDYTYPLTFGGGTKVEIKR	
14.2		humanized 6F7 with light chain variable region LV2 (antibody, V domains shown) VH: EVQLVESGGGLVQPGGSLRLSCAASGFTFTDYYMSWVRQAPGKGLEWVAFIRNKANGYTTEYSASVKGRFTISRDDSKNSLYLQMNSLRAEDTAVYYCARDSHYRPFAYWGQGTLVTVSS VL: DIVMTQSPDSLAVSLGERATINCKSSQSLLNSGNQNNYLTWYQQKPGQPPKLLIYLASTRDSGVPDRFSGSGSGTDFTLTISSLQAEDVAVYYCQNDYTYPLTFGGGTKVEIKR	
	0.323	anti-B7H3 antibody 2B8 (antibody, V domains shown) VH: QVQLQQSGPELVRPGVSVKISCKVSGYTFTDGAMHWVKRSHAKSLEWIGIINTNSGNTNYNQKFQGKATMTVDKSSSTAYMELARLTSEDSAIYYCARGVFYYGYGAWFAYWGQGTLVTVSA VL: DVQITQSPSYLTASPGETIIINCRASKTISNYLAWYQEKPGKTNKLLIYSGSTLQSGIPSRFSGSGSDTDFTLTISSLEPEDFAMYYCQQHHEYPLTFGAGTKLELKR	
	0.435	anti-B7H3 antibody 26B6 (antibody, V domains shown) VH: EVQLQQSGPELVKPGASVKISCKTSGYAFTEYTMHWVKQSQGKSLEWIGGINPNTGGTTYNQKFNGKATLTVDRSSSTAYMELRSLTSEDSAVYYCTRPYRDDGGFHWYFDVWGAGTAVTVSS VL: QIVLTQSPAVMSTSPGEKVTMTCSASSSVSYMQWYQQKSGTSPKRWIYDTSKLTSGVPARFSGSGSGTSYSLTISSMEAEDAATYYCQQWSSNPLTFGAGTKLELKR	
0.753		humanized 26B6 (antibody, V domains shown) VH: EVQLVQSGAEVKKPGASVKVSCKASGYTFTEYTMHWVRQAPGQGLEWIGGINPNTGGTTYNQKFNGRVTMTRDTSISTAYMELSSLRSEDTAVYYCTRPYRDDGGFHWYFDVWGQGTLVTVSS VL: EIVLTQSPATLSLSPGERATLSCSASSSVSYMQWYQQKPGLAPRLLIYDTSKLTSGIPDRFSGSGSGTDFTLTISRLEPEDFAVYYCQQWSSNPLTFGGGTKVEIKR	
	0.685	anti-B7H3 antibody 23H1 (antibody, V domains shown) VH: EVKLVESGGGLVQPGGSLRLSCATSGFTFTDYYMSWVRQPPGKALEWLGFIRNKVNDYTTEYSVSVKGRFTISRDNSQTILYLQMNTLRAEDSATYYCARDSPYRPFAYWGQGTLVTVSA VL: DIVMTQSPSSLTVTAGENVTMSCKSSQTLLNNGNQKNFLTWYQQKPGQPPKLLIYLASTRESGVPDRFTGSGSGTDFTLTISSVQAEDLAVYYCQNDYTYPLTFGAGTKLELKR	
	0.537	anti-B7H3 antibody 6F7 (antibody, V domains shown) VH: EVKLVESGGGLVQPGGSLRLSCATSGFTFTDYYMSWVRQPPGKALEWLGFIRNKANGYTTEYSASVKGRFTISSDDSQSILYLQMNTLRAEDSATYYCARDSHYRPFAYWGQGTLVTVSA VL: DIQMTQSPSSLTVTAGEKVTMSCKSSQSLLNSGNQNNYLTWYQQKPGQPPKLLIYLASTRDSGVPDRFTGSGSGTDFTLTISSVQAEDLAVYYCQNDYTYPLTFGAGTKLELKR	
0.277	0.346	huM30 (antibody, from another filing, V domains shown) VH: QVQLVQSGAEVKKPGSSVKVSCKASGYTFTNYVMHWVRQAPGQGLEWMGYINPYNDDVKYNEKFKGRVTITADESTSTAYMELSSLRSEDTAVYYCARWGYYGSPLYYFDYWGQGTLVTVSS VL: EIVLTQSPATLSLSPGERATLSCRASSRLIYMHWYQQKPGQAPRPLIYATSNLASGIPARFSGSGSGTDFTLTISSLEPEDFAVYYCQQWNSNPPTFGQGTKVEIK	0.0974
